The values below come from patent US20090208995.

For series [1], the system named is Pro-CE derived from a horseshoe crab hemocyte extract (DS-10AII fraction).
The test system of series [2] is T1, recombinant Pro-CE (pro-clotting enzyme, His-Tag at the C-terminus, expressed in expresSF+ insect cells).
T1 sequence: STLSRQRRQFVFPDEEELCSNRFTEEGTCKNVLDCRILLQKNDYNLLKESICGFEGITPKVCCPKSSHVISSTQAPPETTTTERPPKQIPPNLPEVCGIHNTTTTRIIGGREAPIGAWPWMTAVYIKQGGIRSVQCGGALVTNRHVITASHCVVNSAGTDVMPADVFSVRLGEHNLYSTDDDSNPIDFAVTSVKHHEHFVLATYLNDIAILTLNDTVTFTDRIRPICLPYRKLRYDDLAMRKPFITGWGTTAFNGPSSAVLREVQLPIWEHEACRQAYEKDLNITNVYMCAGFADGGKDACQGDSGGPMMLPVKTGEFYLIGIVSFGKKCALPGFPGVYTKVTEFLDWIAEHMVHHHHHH

The target of series [3] is T2, recombinant Pro-CE (pro-clotting enzyme, His-Tag at the C-terminus, expressed in expresSF+ insect cells).
T2 chain: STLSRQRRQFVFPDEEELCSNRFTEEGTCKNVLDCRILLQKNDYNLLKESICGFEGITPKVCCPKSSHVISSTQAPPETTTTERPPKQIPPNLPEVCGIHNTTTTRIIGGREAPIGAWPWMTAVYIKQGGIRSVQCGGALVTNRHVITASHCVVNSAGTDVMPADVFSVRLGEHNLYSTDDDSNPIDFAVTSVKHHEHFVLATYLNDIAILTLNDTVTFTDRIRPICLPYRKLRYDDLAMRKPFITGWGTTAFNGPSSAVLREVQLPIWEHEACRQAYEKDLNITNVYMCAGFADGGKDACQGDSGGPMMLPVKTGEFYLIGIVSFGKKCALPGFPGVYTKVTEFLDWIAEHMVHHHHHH

Series [4] has as its target T3, recombinant factor B (His-Tag at the C-terminus; culture supernatant, MOI = 0.1, 96 h).
T3 chain: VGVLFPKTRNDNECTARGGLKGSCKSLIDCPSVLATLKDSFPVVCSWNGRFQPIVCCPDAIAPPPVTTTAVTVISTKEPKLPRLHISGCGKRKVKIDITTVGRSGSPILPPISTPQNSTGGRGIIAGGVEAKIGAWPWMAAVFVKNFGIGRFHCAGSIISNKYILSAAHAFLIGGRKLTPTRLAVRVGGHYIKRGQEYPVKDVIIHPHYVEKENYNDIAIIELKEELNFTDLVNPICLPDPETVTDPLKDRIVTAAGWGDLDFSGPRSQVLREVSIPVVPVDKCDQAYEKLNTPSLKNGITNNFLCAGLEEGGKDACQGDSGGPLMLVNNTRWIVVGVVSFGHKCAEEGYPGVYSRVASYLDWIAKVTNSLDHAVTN

Take “Factor G derived from a horseshoe crab hemocyte extract (DS-3GII fraction)”: in series [1], the Reactivity, Average; CSBG 0 ng/mL (A 405 to 492 nm) was found to be 0.058; the Reactivity, Average; CSBG 1 ng/mL (A 405 to 492 nm) came to 0.437; the Reactivity, Average; CSBG 10 ng/mL (A 405 to 492 nm) amounted to 0.986; the Reactivity, endpoint assay, Boc-Leu-Gly-Arg-pNA; CSBG 0 ng/mL, first reading (A 405 to 492 nm) amounted to 0.056. In series [1], this molecule returned a Reactivity, endpoint assay, Boc-Leu-Gly-Arg-pNA; CSBG 0 ng/mL, second reading (A 405 to 492 nm) of 0.06; a Reactivity, endpoint assay, Boc-Leu-Gly-Arg-pNA; CSBG 1 ng/mL, first reading (A 405 to 492 nm) of 0.44; a Reactivity, endpoint assay, Boc-Leu-Gly-Arg-pNA; CSBG 1 ng/mL, second reading (A 405 to 492 nm) of 0.434; a Reactivity, endpoint assay, Boc-Leu-Gly-Arg-pNA; CSBG 10 ng/mL, first reading (A 405 to 492 nm) of 0.969. In series [1], this molecule had a Reactivity, endpoint assay, Boc-Leu-Gly-Arg-pNA; CSBG 10 ng/mL, second reading (A 405 to 492 nm) of 1; a Reactivity, ΔA; CSBG 1 ng/mL (A 405 to 492 nm) of 0.379; a Reactivity, ΔA; CSBG 10 ng/mL (A 405 to 492 nm) of 0.928. Further, in series [2], the Reactivity, Average; CSBG 0 ng/mL (A 405 to 492 nm) came to 0.05; the Reactivity, Average; CSBG 1 ng/mL (A 405 to 492 nm) was found to be 0.484; the Reactivity, Average; CSBG 10 ng/mL (A 405 to 492 nm) amounted to 0.987; the Reactivity, endpoint assay, Boc-Leu-Gly-Arg-pNA; CSBG 0 ng/mL, first reading (A 405 to 492 nm) came out at 0.051. In addition, in series [2], the Reactivity, endpoint assay, Boc-Leu-Gly-Arg-pNA; CSBG 0 ng/mL, second reading (A 405 to 492 nm) is 0.049; the Reactivity, endpoint assay, Boc-Leu-Gly-Arg-pNA; CSBG 1 ng/mL, first reading (A 405 to 492 nm) was 0.48; the Reactivity, endpoint assay, Boc-Leu-Gly-Arg-pNA; CSBG 1 ng/mL, second reading (A 405 to 492 nm) came to 0.487; the Reactivity, endpoint assay, Boc-Leu-Gly-Arg-pNA; CSBG 10 ng/mL, first reading (A 405 to 492 nm) was determined as 0.988. Moreover, in series [2], the Reactivity, endpoint assay, Boc-Leu-Gly-Arg-pNA; CSBG 10 ng/mL, second reading (A 405 to 492 nm) was 0.986; the Reactivity, ΔA; CSBG 1 ng/mL (A 405 to 492 nm) worked out at 0.434; the Reactivity, ΔA; CSBG 10 ng/mL (A 405 to 492 nm) was found to be 0.937; the “enzymatic activity with DS-3GII fraction and BG” value is reported as “the recombinant Pro-CE exhibited an enzymatic activity almost equivalent to that of Pro-CE derived from a horseshoe crab hemocyte extract”.

For “recombinant factor G (culture supernatant; alpha-subunit:beta-subunit = 2:1)”, in series [2], the Reactivity, Average; CSBG 0 ng/mL stood at 0.078; the Reactivity, Average; CSBG 1 ng/mL was 0.139; the Reactivity, Average; CSBG 10 ng/mL came out at 0.532; the Reactivity, endpoint assay, Boc-Leu-Gly-Arg-pNA; CSBG 0 ng/mL, first reading is 0.079. Moreover, in series [2], the Reactivity, endpoint assay, Boc-Leu-Gly-Arg-pNA; CSBG 0 ng/mL, second reading was determined as 0.076; the Reactivity, endpoint assay, Boc-Leu-Gly-Arg-pNA; CSBG 1 ng/mL, first reading amounted to 0.14; the Reactivity, endpoint assay, Boc-Leu-Gly-Arg-pNA; CSBG 1 ng/mL, second reading amounted to 0.138; the Reactivity, endpoint assay, Boc-Leu-Gly-Arg-pNA; CSBG 10 ng/mL, first reading was 0.543. For the same molecule, in series [2], the Reactivity, endpoint assay, Boc-Leu-Gly-Arg-pNA; CSBG 10 ng/mL, second reading turned out to be 0.52; the Reactivity, ΔA; CSBG 1 ng/mL was 0.061; the Reactivity, ΔA; CSBG 10 ng/mL came to 0.454; the “hydrolysis of Boc-Leu-Gly-Arg-pNA in the complete reconstitution system with BG” value is reported as “the same enzymatic activity as that of native factor LAL was found to be expressed”.

B1: recombinant factor C (derived from Tachypleus rotundicauda), commercial element of PyroGene (product of Cambrex) (protein)
chain: KGVDLGLCDETRFECKCGDPGYVFNIPVKQCTYFYRWRPYCKPCDDLEAKDICPKYKRCQECKAGLDSCVTCPPNKYGTWCSGECQCKNGGICDQRTGACACRDRYEGVHCEILKGCPLLPSDSQVQEVRNPPDNPQTIDYSCSPGFKLKGMARISCLPNGQWSNFPPKCIRECAMVSSPEHGKVNALSGDMIEGATLRFSCDSPYYLIGQETLTCQGNGQWNGQIPQCKNLVFCPDLDPVNHAEHKVKIGVEQKYGQFPQGTEVTYTCSGNYFLMGFDTLKCNPDGSWSGSQPSCVKVADREVDCDSKAVDFLDDVGEPVRIHCPAGCSLTAGTVWGTAIYHELSSVCRAAIHAGKLPNSGGAVHVVNNGPYSDFLGSDLNGIKSEELKSLARSFRFDYVRSSTAGKSGCPDGWFEVDENCVYVTSKQRAWERAQGVCTNMAARLAVLDKDVIPNSLTETLRGKGLTTTWIGLHRLDAEKPFIWELMDRSNVVLNDNLTFWASGEPGNETNCVYMDIQDQLQSVWKTKSCFQPSSFACMMDLSDRNKAKCDDPGSLENGHATLHGQSIDGFYAGSSIRYSCEVLHYLSGTETVTCTTNGTWSAPKPRCIKVITCQNPPVPSYGSVEIKPPSRTNSISRVGSPFLRLPRLPLPLARAAKPPPKPRSSQPSTVDLASKVKLPEGHYRVGSRAIYTCESRYYELLGSQGRRCDSNGNWSGRPASCIPVCGRSDSPRSPFIWNGNSTEIGQWPWQAGISRWLADHNMWFLQCGGSLLNEKWIVTAAHCVTYSATAEIIDPNQFKMYLGKYYRDDSRDDDYVQVREALEIHVNPNYDPGNLNFDIALIQLKTPVTLTTRVQPICLPTDITTREHLKEGTLAVVTGWGLNENNTYSETIQQAVLPVVAASTCEEGYKEADLPLTVTENMFCAGYKKGRYDACSGDSGGPLVFADDSRTERRWVLEGIVSWGSPSGCGKANQYGGFTKVNVFLSWIRQFI
With B1, in series [3], the Reactivity, Av.; sample (C) PCE + FC, Et 0 ng/mL (A405 to 492 nm) turned out to be 0.02; the Reactivity, Av.; sample (C) PCE + FC, Et 100 ng/mL (A405 to 492 nm) was found to be 0.03; the Reactivity; sample (C) PCE + FC, Et 0 ng/mL, first reading (A405 to 492 nm) was found to be 0.02; the Reactivity; sample (C) PCE + FC, Et 0 ng/mL, second reading (A405 to 492 nm) is 0.02. Besides, in series [3], the Reactivity; sample (C) PCE + FC, Et 100 ng/mL, first reading (A405 to 492 nm) was 0.029 and the Reactivity; sample (C) PCE + FC, Et 100 ng/mL, second reading (A405 to 492 nm) turned out to be 0.03. For the same molecule, in series [4], the Reactivity, Av.; sample (D) FB + FC, Et 0 ng/mL (A405 to 492 nm) stood at 0.025; the Reactivity, Av.; sample (D) FB + FC, Et 100 ng/mL (A405 to 492 nm) amounted to 0.033; the Reactivity; sample (D) FB + FC, Et 0 ng/mL, first reading (A405 to 492 nm) amounted to 0.024; the Reactivity; sample (D) FB + FC, Et 0 ng/mL, second reading (A405 to 492 nm) was 0.025. In series [4], the Reactivity; sample (D) FB + FC, Et 100 ng/mL, first reading (A405 to 492 nm) came to 0.032; the Reactivity; sample (D) FB + FC, Et 100 ng/mL, second reading (A405 to 492 nm) amounted to 0.034; the “hydrolysis of Boc-Leu-Gly-Arg-pNA in the complete reconstitution system with Et (Pro-CE also present)” value is “cascade reaction of Et proceeds in a concentration-dependent manner through employment of recombinant factors C and B and recombinant Pro-CE in combination”.

B2: recombinant factor B (His-Tag at the C-terminus; culture supernatant, MOI = 0.1, 96 h) (protein)
chain: VGVLFPKTRNDNECTARGGLKGSCKSLIDCPSVLATLKDSFPVVCSWNGRFQPIVCCPDAIAPPPVTTTAVTVISTKEPKLPRLHISGCGKRKVKIDITTVGRSGSPILPPISTPQNSTGGRGIIAGGVEAKIGAWPWMAAVFVKNFGIGRFHCAGSIISNKYILSAAHAFLIGGRKLTPTRLAVRVGGHYIKRGQEYPVKDVIIHPHYVEKENYNDIAIIELKEELNFTDLVNPICLPDPETVTDPLKDRIVTAAGWGDLDFSGPRSQVLREVSIPVVPVDKCDQAYEKLNTPSLKNGITNNFLCAGLEEGGKDACQGDSGGPLMLVNNTRWIVVGVVSFGHKCAEEGYPGVYSRVASYLDWIAKVTNSLDHAVTN
As for B2, in series [3], the Reactivity, Av.; sample (A) PCE + FB + FC (factor C also present), Et 0 ng/mL (A405 to 492 nm) was found to be 0.023; the Reactivity, Av.; sample (A) PCE + FB + FC (factor C also present), Et 100 ng/mL (A405 to 492 nm) stood at 0.649; the Reactivity, Av.; sample (B) PCE + FB, Et 0 ng/mL (A405 to 492 nm) was 0.023; the Reactivity, Av.; sample (B) PCE + FB, Et 100 ng/mL (A405 to 492 nm) is 0.023. Moreover, in series [3], the Reactivity; sample (A) PCE + FB + FC (factor C also present), Et 0 ng/mL, first reading (A405 to 492 nm) is 0.024; the Reactivity; sample (A) PCE + FB + FC (factor C also present), Et 0 ng/mL, second reading (A405 to 492 nm) came out at 0.022; the Reactivity; sample (A) PCE + FB + FC (factor C also present), Et 100 ng/mL, first reading (A405 to 492 nm) was 0.652; the Reactivity; sample (A) PCE + FB + FC (factor C also present), Et 100 ng/mL, second reading (A405 to 492 nm) came out at 0.645. Besides, in series [3], the Reactivity; sample (B) PCE + FB, Et 0 ng/mL, first reading (A405 to 492 nm) was determined as 0.023; the Reactivity; sample (B) PCE + FB, Et 0 ng/mL, second reading (A405 to 492 nm) is 0.022; the Reactivity; sample (B) PCE + FB, Et 100 ng/mL, first reading (A405 to 492 nm) came out at 0.022; the Reactivity; sample (B) PCE + FB, Et 100 ng/mL, second reading (A405 to 492 nm) came to 0.023. In addition, in series [3], the “hydrolysis of Boc-Leu-Gly-Arg-pNA in the complete reconstitution system with Et (factor C also present)” value is “cascade reaction of Et proceeds in a concentration-dependent manner through employment of recombinant factors C and B and recombinant Pro-CE in combination”; the “hydrolysis of Boc-Leu-Gly-Arg-pNA in the presence of Et at high concentration, without factor C” value is listed as “in the samples containing recombinant Pro-CE and/or recombinant factor B, activation attributed to high concentration Et was not observed”.
